{
  "source": "IntAct's records for PubMed 23415225",
  "parents": {"B1": {"name": "AP-1 complex subunit beta-1 (Homo sapiens), Q10567 (parent)", "chain": "MTDSKYFTTTKKGEIFELKAELNSDKKEKKKEAVKKVIASMTVGKDVSALFPDVVNCMQTDNLELKKLVYLYLMNYAKSQPDMAIMAVNTFVKDCEDPNPLIRALAVRTMGCIRVDKITEYLCEPLRKCLKDEDPYVRKTAAVCVAKLHDINAQLVEDQGFLDTLKDLISDSNPMVVANAVAALSEIAESHPSSNLLDLNPQSINKLLTALNECTEWGQIFILDCLANYMPKDDREAQSICERVTPRLSHANSAVVLSAVKVLMKFMEMLSKDLDYYGTLLKKLAPPLVTLLSAEPELQYVALRNINLIVQKRPEILKHEMKVFFVKYNDPIYVKLEKLDIMIRLASQANIAQVLAELKEYATEVDVDFVRKAVRAIGRCAIKVEQSAERCVSTLLDLIQTKVNYVVQEAIVVIKDIFRKYPNKYESVIATLCENLDSLDEPEARAAMIWIVGEYAERIDNADELLESFLEGFHDESTQVQLQLLTAIVKLFLKKPTETQELVQQVLSLATQDSDNPDLRDRGYIYWRLLSTDPVAAKEVVLAEKPLISEETDLIEPTLLDELICYIGTLASVYHKPPSAFVEGGRGVVHKSLPPRTASSESAESPETAPTGAPPGEQPDVIPAQGDLLGDLLNLDLGPPVSGPPLATSSVQMGAVDLLGGGLDSLMGDEPEGIGGTNFVAPPTAAVPANLGAPIGSGLSDLFDLTSGVGTLSGSYVAPKAVWLPAMKAKGLEISGTFTRQVGSISMDLQLTNKALQVMTDFAIQFNRNSFGLAPAAPLQVHAPLSPNQTVEISLPLSTVGSVMKMEPLNNLQVAVKNNIDVFYFSTLYPLHILFVEDGKMDRQMFLATWKDIPNENEAQFQIRDCPLNAEAASSKLQSSNIFTVAKRNVEGQDMLYQSLKLTNGIWVLAELRIQPGNPSCTDLELSLKCRAPEVSQHVYQAYETILKN"}, "B2": {"name": "AP-1 complex subunit gamma-1 (Mus musculus), P22892 (parent)", "chain": "MPAPIRLRELIRTIRTARTQAEEREMIQKECAAIRSSFREEDNTYRCRNVAKLLYMHMLGYPAHFGQLECLKLIASQKFTDKRIGYLGAMLLLDERQDVHLLMTNCIKNDLNHSTQFVQGLALCTLGCMGSSEMCRDLAGEVEKLLKTSNSYLRKKAALCAVHVIRKVPELMEMFLPATKNLLNEKNHGVLHTSVVLLTEMCERSPDMLAHFRKLVPQLVRILKNLIMSGYSPEHDVSGISDPFLQVRILRLLRILGRNDDDSSEAMNDILAQVATNTETSKNVGNAILYETVLTIMDIKSESGLRVLAINILGRFLLNNDKNIRYVALTSLLKTVQTDHNAVQRHRSTIVDCLKDLDVSIKRRAMELSFALVNGNNIRGMMKELLYFLDSCEPEFKADCASGIFLAAEKYAPSKRWHIDTIMRVLTTAGSYVRDDAVPNLIQLITNSVEMHAYTVQRLYKAILGDYSQQPLVQVAAWCIGEYGDLLVSGQCEEEEPIQVTEDEVLDILESVLISNMSTSVTRGYALTAIMKLSTRFTCTVNRIKKVVSIYGSSIDVELQQRAVEYNALFKKYDHMRSALLERMPVMEKVTTNGPSEIVQTNGETEPAPLETKPPPSGPQPTSQANDLLDLLGGNDITPVIPTAPTSKPASAGGELLDLLGDITLTGAPAAAPTPASVPQISQPPFLLDGLSSQPLFNDIAPGIPSITAYSKNGLKIEFTFERSNTNPSVTVITIQASNSTELDMTDFVFQAAVPKTFQLQLLSPSSSVVPAFNTGTITQVIKVLNPQKQQLRMRIKLTYNHKGSAMQDLAEVNNFPPQSWQ", "partner": "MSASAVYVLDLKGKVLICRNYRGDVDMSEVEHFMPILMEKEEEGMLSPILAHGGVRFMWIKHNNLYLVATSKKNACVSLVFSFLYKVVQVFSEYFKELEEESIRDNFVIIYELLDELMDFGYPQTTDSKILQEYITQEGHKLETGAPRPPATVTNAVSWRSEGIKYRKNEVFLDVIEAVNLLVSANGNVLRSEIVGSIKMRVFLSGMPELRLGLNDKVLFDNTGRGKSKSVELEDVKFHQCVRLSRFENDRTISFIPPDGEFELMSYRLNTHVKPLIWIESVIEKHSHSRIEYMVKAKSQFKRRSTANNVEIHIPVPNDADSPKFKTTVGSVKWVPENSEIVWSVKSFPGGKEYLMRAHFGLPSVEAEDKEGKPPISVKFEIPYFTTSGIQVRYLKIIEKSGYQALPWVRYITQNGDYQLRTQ"}},
  "data": [
    {"variants_of": "B1", "conditions": "with ap1g1_human AP1G1, O43747", "values": [
      {"variant": "I85D;V88D", "effect of a mutation on the interaction": "disrupting interaction strength"}
    ]},
    {"variants_of": "B2", "conditions": "with ap1m1_mouse Ap1m1, P35585", "values": [
      {"variant": "L68D;L71E;L102E", "effect of a mutation on the interaction": "disrupting interaction strength"}
    ]}
  ]
}
